Results from patent US20100022453A1 (UNIVERSITY OF ROCHESTER, published 2010).

B5: rat NgR2, full-length, expressed on COS-7 cells (receptor)
chain: CPMLCTCYSSPPTVSCQANNFSSVPLSLPPSTQRLFLQNNLIRSLRPGTFGPNLLTLWLFSNNLSTIYPGTFRHLQALEELDLGDNRHLRSLEPDTFQGLERLQSLHLYRCQLSSLPGNIFRGLVSLQYLYLQENSLLHLQDDLFADLANLSHLFLHGNRLRLLTEHVFRGLGSLDRLLLHGNRLQGVHRAAFHGLSRLTILYLFNNSLASLPGEALADLPALEFLRLNANPWACDCRARPLWAWFQRARVSSSDVTCATPPERQGRDLRTLRDTDFQACPPPTPTRPGSRARGNSSSNHLYGVAEAGAPPADPSTLYRDLPAEDSRGRQGGDAPTEDDYWGGYGGEDQRGEQTCPGAAC
notes: also called NgR2 in COS cells
B6: rat NgR1 (Nogo-66 receptor), full-length, expressed on cells (receptor)
chain: CPGACVCYNEPKVTTSCPQQGLQAVPTGIPASSQRIFLHGNRISYVPAASFQSCRNLTILWLHSNALAGIDAAAFTGLTLLEQLDLSDNAQLRVVDPTTFRGLGHLHTLHLDRCGLQELGPGLFRGLAALQYLYLQDNNLQALPDNTFRDLGNLTHLFLHGNRIPSVPEHAFRGLHSLDRLLLHQNHVARVHPHAFRDLGRLMTLYLFANNLSMLPAEVLVPLRSLQYLRLNDNPWVCDCRARPLWAWLQKFRGSSSEVPCNLPQRLAGRDLKRLAASDLEGCAVASGPFRPFQTNQLTDEELLGLPKCCQPDAADKASVLEPGRPASAGNALKGRVPPGDTPPGNGSGPRHINDSPFGTLPGSAEPPLTALRPGGSEPPGLPTTGPRRRPGCSRKNRTRSHCRLGQAGSGSSGTGDAEGS
notes: also called Nogo receptor NgR1; NgR1 in COS cells

Legend:
[1] = target: B6; test: AP-ligand binding to NgR1 on COS cells
Procedure: (§1) Techniques for ligand binding to NgR1 on COS cells is described in detail in Venkatesh et al. (2005) Journal of Neuroscience 25:808-22, which is incorporated herein by reference in its entirety at least for the methods taught therein. Briefly, receptor constructs were expressed transiently in COS-7 cells in 24-well plates coated with poly-D-lysine (PDL; 50 μg/ml), using Lipofectamine 2000. At 24 h after transfection the cells were rinsed and incubated for 75 min at ambient temperature with alkaline phosphatase tagged FGF1, FGF2, FGF4, FGF8, FGF9, and FGF21. To monitor bound ligand, plates were developed with NBT/BCIP substrate; the color reaction was stopped by two rinses in PBS. For quantification of ligand binding the cells were processed as described above; after ligand incubation the cells were rinsed in HBHA and lysed in 20 mM Tris, pH 8.0, 0.1% Triton X-100. The lysates were incubated at 65° C. for 60 min and spun at 10,000×g for 5 min. The relative AP activity in supernatants was normalized to cell surface receptor expression, using anti-myc (1:1000), anti-NgR1 (1:1000), anti-NgR2 (1:1000), or anti-NgR3 (1:200) antibodies, as described previously (Giger et al., Neuron 21:1079-92, 1998). Scatchard plot analysis was performed analogous to a previous study (Kolodkin et al., Cell 90:753-62, 1997).

[2] = target: B5; test: AP-ligand binding to NgR2 on COS cells
Procedure: as §1

[3] = target: B6; test: AP-tagged ligand binding to NgR1 on COS cells
Procedure: as §1

[4] = target: B5; test: AP-ligand binding to NgR2 on COS-7 cells
Procedure: as §1

[5] = target: T1, NgR1-Fc (mouse NogoR/Fc, R&D Systems) (mouse, UniProt Q99PI8 27-447); test: affinity precipitation with NgR1-Fc on Protein A/G beads, anti-AP Western blot
T1 construct: also called soluble NgR1-Fc
T1 sequence (looked up): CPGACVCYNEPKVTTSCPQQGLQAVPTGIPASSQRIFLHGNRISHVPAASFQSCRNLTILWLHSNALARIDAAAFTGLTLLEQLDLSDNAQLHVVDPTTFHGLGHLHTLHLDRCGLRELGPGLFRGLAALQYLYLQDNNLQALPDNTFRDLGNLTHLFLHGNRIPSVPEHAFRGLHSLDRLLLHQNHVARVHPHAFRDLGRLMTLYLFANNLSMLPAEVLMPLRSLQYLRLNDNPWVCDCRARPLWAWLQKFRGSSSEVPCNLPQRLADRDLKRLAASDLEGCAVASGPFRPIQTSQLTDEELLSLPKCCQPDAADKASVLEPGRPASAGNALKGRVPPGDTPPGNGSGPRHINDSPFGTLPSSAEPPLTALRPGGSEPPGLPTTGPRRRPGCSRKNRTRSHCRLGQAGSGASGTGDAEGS
Procedure: NgR1-Fc (0.5 μg, R&D Systems) and AP-tagged ligands (1.5 nM final conc.) were mixed in DMEM containing 0.1% BSA and protease inhibitor cocktail and were incubated at 4° C. for 2 h. AP-ligands bound to NgR1-Fc were precipitated with Protein A/G agarose beads after 2 h at 4° C. Samples were rinsed extensively in washing buffer (20 mM Tris-HCl, pH 7.5, 150 mM NaCl, 1% NP40, 5 mM EDTA) and analyzed by Western blotting using an anti-AP antibody. For cross-linking experiments, NgR1-Fc, FGFR1D(IIIb)/Fc, TROY-Fc, or ephrinB3-Fc (R&D Systems) (each at 13 nM), were incubated with 40 nM ¹²⁵I-FGF2 (specific activity: ˜50 μCi/μg, MP Biochem.) with or without the indicated concentrations of cold FGF2 or insulin for 2 h at room temperature in PBS. Cross-linking was initiated by adding BS³ (bis[sulfosuccinimidyl]suberate, Pierce, Rockford, Ill.) to a final concentration of 2 mM and incubating for 30 min at room temperature. The reaction was stopped by adding 2 μl of 1 M Tris-HCl (pH 7.4) and protein complexes were analyzed by SDS-PAGE. Gels were subsequently fixed, dried, and subjected to autoradiography.

[6] = target: B6; test: Scatchard plot analysis of AP-ligand binding to NgR1 on COS-7 cells
Procedure: as §1, with “The relative AP activity in supernatants was normalized to cell surface receptor expression, using anti-myc (1:1000), anti-NgR1 (1:1000), anti-NgR2 (1:1000), or anti-NgR3 (1:200) antibodies, as described previously (Giger et al., Neuron 21:1079-92, 1998). Scatchard plot analysis was performed analogous to a previous study (Kolodkin et al., Cell 90:753-62, 1997).” left out
To address whether NgR1 interacts directly with FGF2, affinity precipitation experiments were performed. […] The complexes of ¹²⁵I-FGF2:NgR1-Fc and ¹²⁵I-FGF2:FGFR1-Fc run at apparent molecular weights of 220- and 250-kDa and higher molecular weight complexes containing ¹²⁵I-FGF2 are detected as well (FIG. 3C).

[7] = target: B6; test: AP-ligand binding to NgR1 on COS-7 cells
Procedure: as §1

AP-FGF9 (mouse) [8] = target: T2, AP-FGF9 (mouse) (human; mouse, UniProt P54130 4-208); test: AP-ligand binding to NgR2 on COS-7 cells
Procedure: as §1

[9] = target: T3, AP-sNgR1^CT+stalk (Phe278-Glu445) (human; rat); test: AP-fusion protein binding to transfected COS-7 cells; (-) = no binding above background
T3 construct: Expressed in HEK293T cells and used as conditioned supernatant
T3 sequence (P05187 other isoform, or with tags, fused parts or gaps): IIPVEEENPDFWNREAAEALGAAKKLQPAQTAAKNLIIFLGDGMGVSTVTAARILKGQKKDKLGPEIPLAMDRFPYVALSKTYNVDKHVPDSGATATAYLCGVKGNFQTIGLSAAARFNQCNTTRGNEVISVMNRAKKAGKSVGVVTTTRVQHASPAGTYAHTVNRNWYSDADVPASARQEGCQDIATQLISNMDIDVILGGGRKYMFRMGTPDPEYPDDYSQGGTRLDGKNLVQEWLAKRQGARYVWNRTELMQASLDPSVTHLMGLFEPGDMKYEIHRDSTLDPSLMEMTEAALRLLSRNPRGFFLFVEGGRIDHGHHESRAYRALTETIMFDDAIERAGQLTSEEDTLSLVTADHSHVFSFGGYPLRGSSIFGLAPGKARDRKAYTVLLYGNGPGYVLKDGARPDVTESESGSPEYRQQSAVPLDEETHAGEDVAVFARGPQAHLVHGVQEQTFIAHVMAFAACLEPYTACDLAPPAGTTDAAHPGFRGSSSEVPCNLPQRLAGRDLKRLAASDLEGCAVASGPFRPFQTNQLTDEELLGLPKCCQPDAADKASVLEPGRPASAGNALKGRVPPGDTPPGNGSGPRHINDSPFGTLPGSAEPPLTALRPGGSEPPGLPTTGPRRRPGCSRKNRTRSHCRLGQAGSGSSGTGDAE

AP-FGF9 (mouse) [10] = target: T2, AP-FGF9 (mouse); test: AP-ligand binding to NgR1 on COS-7 cells
Procedure: as §1

B1: AP-FGF4 (mouse) (ligand, UniProt P11403 30-202, looked up)
chain: APNGTRHAELGHGWDGLVARSLARLPVAAQPPQAAVRSGAGDYLLGLKRLRRLYCNVGIGFHLQVLPDGRIGGVHADTRDSLLELSPVQRGVVSIFGVASRFFVAMSSRGKLFGVPFFTDECKFKEILLPNNYNAYESYAYPGMFMALSKNGRTKKGNRVSPTMKVTHFLPRL
notes: not shown: human placental alkaline phosphatase (AP) tag
- binding result [1]: binds
- binding result [2]: no binding

B2: AP-FGF2 (mouse), alkaline phosphatase tagged FGF2 (ligand, UniProt P15655 10-154, looked up)
chain: PALPEDGGAAFPPGHFKDPKRLYCKNGGFFLRIHPDGRVDGVREKSDPHVKLQLQAEERGVVSIKGVCANRYLAMKEDGRLLASKCVTEECFFFERLESNNYNTYRSRKYSSWYVALKRTGQYKLGSKTGPGQKAILFLPMSAKS
notes: also called bFGF; basic FGF; not shown: human placental alkaline phosphatase (AP) tag
- Kd [3]: ~10 nM
- binding result [4]: no binding
- binding result [5]: binds
- Kd [6]: 16.9 nM

B3: AP-FGF8 (mouse) (ligand, UniProt P37237-2 23-215, looked up)
chain: QVTVQSSPNFTQHVREQSLVTDQLSRRLIRTYQLYSRTSGKHVQVLANKRINAMAEDGDPFAKLIVETDTFGSRVRVRGAETGLYICMNKKGKLIAKSNGKGKDCVFTEIVLENNYTALQNAKYEGWYMAFTRKGRPRKGSKTRQHQREVHFMKRLPRGHHTTEQSLRFEFLNYPPFTRSLRGSQRTWAPEPR
notes: also called FGF8b; not shown: human placental alkaline phosphatase (AP) tag
- binding result [7]: no binding
- binding result [2]: no binding

B4: AP-FGF21 (mouse) (ligand, UniProt Q9JJN1 29-210, looked up)
chain: AYPIPDSSPLLQFGGQVRQRYLYTDDDQDTEAHLEIREDGTVVGAAHRSPESLLELKALKPGVIQILGVKASRFLCQQPDGALYGSPHFDPEACSFRELLLEDGYNVYQSEAHGLPLRLPQKDSPNQDATSWGPVRFLPMPGLLHEPQDQAGFLPPEPPDVGSSDPLSMVEPLQGRSPSYAS
notes: as for B1
- binding result [7]: no binding
- binding result [2]: no binding

Binder: B5
- binding result (AP-FGF9 (mouse) [8]): no binding
- binding result [9]: no binding

Binder: B6
- binding result (AP-FGF9 (mouse) [10]): no binding
- binding result [9]: no binding

B7: rat NgR3 expressed on COS-7 cells (receptor, UniProt Q80WD0 25-424, looked up)
chain: CPRDCVCYPSPMTVSCQAHNFAAIPEGIPEDSERIFLQNNHITFLQQGHFSPAMVTLWIYSNNITFIAPNTFEGFVHLEELDLGDNRQLRTLAPETFQGLVKLHALYLYKCGLSSLPAGIFGGLHSLQYLYLQDNHIEYLQDDIFVDLVNLSHLFLHGNKLWSLGQGIFRGLVNLDRLLLHENQLQWVHHKAFHDLHRLTTLFLFNNSLTELQGDCLAPLVALEFLRLNGNAWDCGCRARSLWEWLRRFRGSSSVVPCATPELRQGQDLKSLRVEDFRNCTGPASPHQIKSHTLSTSDRAARKEHHPSHGASRDKGHPHGHLPGSRSGSKKPGKNCTSHRNRNQISKGSAGKELPELQDYAPDYQHKFSFDIMPTARPKRKGKCARRTPIRAPSGVQQAS
notes: whole, on cells; also called NgR3 in COS cells
- binding result [9]: no binding

B8: Nogo66-Npn1 (human Nogo66 fused to the transmembrane and cytoplasmic portion of rat neuropilin-1) on COS-7 cells (other, human;rat, UniProt Q9NQC3 1055-1120, looked up)
chain: RIYKGVIQAIQKSDEGHPFRAYLESEVAISEELVQKYSNSALGHVNCTIKELRRLFLVDDLVDSLKILITIIAMSALGVLLGAVCGVVLYCACWHNGMSERNLSALENYNFELVDGVKLKKDKLNPQSNYSEA
notes: domain: Nogo66;domain: transmembrane and cytoplasmic portion; Chimeric cell-surface form of Nogo66; also called Nogo66-Npn1 in COS cells
- binding result [9]: no binding
